Reference: patent US20070020283A1 (Regeneron, published 2007)

B1: hIFNγRα(1-239).SG.hFc (Fc fusion, not shown: a dimerising Fc or GST)
chain: EMGTADLGPSSVPTPTNVTIESYNMNPIVYWEYQIMPQVPVFTVEVKNYGVKNSEWIDACINISHHYCNISDHVGDPSNSLWVRVKARVGQKESAYAKSEEFAVCRDGKIGPPKLDIRKEEKQIMIDIFHPSVFVNGDEQEVDYDPETTCYIRVYNVYVRMNGSEIQYKILTQKEDDCDEIQCQLAIPVSSLNSQYCVSAEGVLHVWGVTTEKSKEVCITIFSG
B2: hIFNγRα(1-239).TG.hFc.ARA.hIFNγRβ (Fc fusion, not shown: a dimerising Fc or GST)
chain (part 1 of 2): EMGTADLGPSSVPTPTNVTIESYNMNPIVYWEYQIMPQVPVFTVEVKNYGVKNSEWIDACINISHHYCNISDHVGDPSNSLWVRVKARVGQKESAYAKSEEFAVCRDGKIGPPKLDIRKEEKQIMIDIFHPSVFVNGDEQEVDYDPETTCYIRVYNVYVRMNGSEIQYKILTQKEDDCDEIQCQLAIPVSSLNSQYCVSAEGVLHVWGVTTEKSKEVCITIFTG
chain (part 2 of 2): ARASQLPAPQHPKIRLYNAEQVLSWEPVALSNSTRPVVYQVQFKYTDSKWFTADIMSIGVNCTQITATECDFTAASPSAGFPMDFNVTLRLRAELGALHSAWVTMPWFQHYRNVTVGPPENIEVTPGEGSLIIRFSSPFDIADTSTAFFCYYVHYWEKGGIQQVKGPFRSNSISLDNLKPSRVYCLQVQAQLLWNKSNIFRVGHLSNISCYETMADASTELQ
B3: human interferon γ (ligand, UniProt P01579 24-166, looked up)
chain: QDPYVKEAENLKKYFNAGHSDVADNGTLFLGILKNWKEESDRKIMQSQIVSFYFKLFKNFKDDQSIQKSVETIKEDMNVKFFNSNKKKRDDFEKLTNYSVTDLNVQRKAIHELIQVMAELSPAAKTGKRKRSQMLFRGRRASQ
notes: Injected in solution over captured fusion proteins (BiaCore); Recombinant human IFNγ at 4 pM in the luciferase bioassays; also called IFNγ; human IFNγ

Assays:
human interferon γ [1] = target: B3; experiment: cell-based or functional assay
human interferon γ [2] = target: B3; experiment: BiaCore (SPR), fusion captured by anti-human Fc, human IFNγ injected; R2-R1-Fc configuration
Protocol: (§1) The affinity of the interferon γ-binding fusion polypeptides for human interferon γ was measured using a BlAcore 2000™ or BlAcore 3000™, as described in WO 00/75319, herein specifically incorporated by reference in its entirety. Briefly, the IFNγ-specific polypeptides were produce as small-scale supernatants by transiently transfecting CHO cells, using Lipofectamine/LIPO Plus® (Life Technologies), with DNA constructs encoding the proteins. Supernatants were collected after 72 hours and protein expression was measured by Western blotting with anti-human Fc HRP-conjugated antibody (Promega) and visualized by ECL (Pierce). Briefly, 5.4×10⁵ CHOK1 cells per well of a 6 well tissue culture dish were transfected using 1 μg of DNA and 5 μl of lipofectamine in OptiMEM™ (Gibco). After 12 h the cells were washed with OptiMEM™ and 2 ml of CHO serum free medium (Gibco) was added. After 60 h and 72 h the media was collected and centrifuged to remove cellular debris. For the BiaCore™ analysis, the IFNγ-binding fusion polypeptides from the transiently transfected CHO supernatants were captured onto the chip surface using anti-human Fc antibodies. Various concentrations of human IFNγ are injected over the surface and the time course of association and dissociation are monitored. Kinetic analyses using BIA evaluation software were performed to obtain the association and dissociation rate constants.

[3] = target: B2; experiment: BiaCore (SPR), fusion captured by anti-human Fc, human IFNγ injected; R1-Fc-R2 configuration
Protocol: as §1

hIFNγRα(1-239).SG.hFc = target: B1; experiment: BiaCore (SPR), fusion from CHO supernatant captured by anti-human Fc, human IFNγ injected
Protocol: as §1

hIFNγRβ.SG.hFc = target: T1, hIFNγRβ.SG.hFc (human, UniProt P38484 28-246); experiment: BiaCore, fusion captured by anti-human Fc, human IFNγ injected
T1 construct: also called pCTR 2828; not shown: hinge, CH2 and CH3 regions of human IgG1 (hFc)
T1 sequence: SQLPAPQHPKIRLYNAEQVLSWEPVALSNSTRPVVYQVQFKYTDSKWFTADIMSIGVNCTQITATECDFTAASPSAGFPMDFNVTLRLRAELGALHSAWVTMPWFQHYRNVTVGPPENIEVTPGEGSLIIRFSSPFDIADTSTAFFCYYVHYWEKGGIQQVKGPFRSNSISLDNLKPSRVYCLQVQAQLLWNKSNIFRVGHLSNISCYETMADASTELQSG
Protocol: as §1

human interferon γ [4] = target: B3; experiment: as above
Protocol: as §1

| Binder | IC50 (M), GAS-luciferase bioassay in HEK293 cells (human interferon γ [1]) [M] | IC50 (M), ISRE-luciferase bioassay in HEK293 cells (human interferon γ [1]) [M] | other results |
| --- | --- | --- | --- |
| B1 | 7.9e-09 | 6.2e-09 | – |
| hIFNγRβ.TG.hIFNγRα(1-239).SG.hFc (Fc fusion, PCTR number 2843 is printed for two different constructs (r17 and r19); also called pCTR 2843; R2-R1-Fc; not shown: hinge, CH2 and CH3 regions of human IgG1 (hFc)) SQLPAPQHPKIRLYNAEQVLSWEPVALSNSTRPVVYQVQFKYTDSKWFTADIMSIGVNCTQITATECDFTAASPSAGFPMDFNVTLRLRAELGALHSAWVTMPWFQHYRNVTVGPPENIEVTPGEGSLIIRFSSPFDIADTSTAFFCYYVHYWEKGGIQQVKGPFRSNSISLDNLKPSRVYCLQVQAQLLWNKSNIFRVGHLSNISCYETMADASTELQTGMALLFLLPLVMQGVSRAEMGTADLGPSSVPTPTNVTIESYNMNPIVYWEYQIMPQVPVFTVEVKNYGVKNSEWIDACINISHHYCNISDHVGDPSNSLWVRVKARVGQKESAYAKSEEFAVCRDGKIGPPKLDIRKEEKQIMIDIFHPSVFVNGDEQEVDYDPETTCYIRVYNVYVRMNGSEIQYKILTQKEDDCDEIQCQLAIPVSSLNSQYCVSAEGVLHVWGVTTEKSKEVCITIFSG | 9.8e-09 | 1.46e-08 | Kd (human interferon γ [2]): > 10 nM |
| B2 | 1.6e-08 | 8e-07 | – |
| B3 | – | – | Kd [3]: > 10 nM; Kd (hIFNγRα(1-239).SG.hFc): 6 nM; binding result (hIFNγRβ.SG.hFc): no binding |
| hIFNγRβ(C174S).SG.hFc (Fc fusion, also called pCTR 2848; not shown: hinge, CH2 and CH3 regions of human IgG1 (hFc)) SQLPAPQHPKIRLYNAEQVLSWEPVALSNSTRPVVYQVQFKYTDSKWFTADIMSIGVNCTQITATECDFTAASPSAGFPMDFNVTLRLRAELGALHSAWVTMPWFQHYRNVTVGPPENIEVTPGEGSLIIRFSSPFDIADTSTAFFSYYVHYWEKGGIQQVKGPFRSNSISLDNLKPSRVYCLQVQAQLLWNKSNIFRVGHLSNISCYETMADASTELQSG | – | – | binding result (human interferon γ [4]): no binding |
